Starred links: 1 amine or outer side, 2 acyl side, 3 side chain; linkers in the order of their positions; H or OH if unused. Non-standard residues stand in square brackets, D forms with d. Groups on a side chain read outwards from the residue. No end group written: not given here. *: point of attachment. C20 diacid = O=C(O)CCCCCCCCCCCCCCCCCCC(=O)*; γGlu = O=C(O)[C@H](CCC(=O)[*:2])N[*:1]; AEEA = NCCOCCOCC(=O)O; Aib = CC(C)(N)C(=O)O
How the values were obtained:
[1] = target: glucagon-like peptide-1 (GLP-1) receptor; experiment: cell-based or functional assay
glucagon (Gcg) receptor = experiment: cell-based or functional assay

Binder | Relative biological activity (cAMP chemiluminescence, RLU, CHO-K1 cells stably expressing GLP-1R; relative to OXM3) [1] | Biological activity (%) (cAMP chemiluminescence, RLU, CHO-K1 cells stably expressing GcgR; relative to OXM3) (glucagon (Gcg) receptor)
H[Aib]QGTFTSDYSKYLDEKKAK([Gly-Gly-Glu-Gly-Glu-Gly-γGlu-C20 diacid])EFVEWLLEGGPSSGAPPPS-NH2 [Compound 4] | 116% | 49.6%
H[Aib]QGTFTSDYSKYLDEKKAK([PEG5CH2CO-γGlu-C20 diacid])EFVEWLLEGGPSSGAPPPS-NH2 [Compound 2] | 260% | 86.9%
H[Aib]QGTFTSDYSKYLDEKKAKEFVEWLLEGGPSSGAPPPS-NH2 (not fully specified (residue 20)) [Compound 3] | 158% | 94.2%
H[Aib]QGTFTSDYSKYLDEKKAK([AEEA-AEEA-γGlu-C20 diacid])EFVEWLLEGGPSSGAPPPS-NH2 [Compound 1] | 188% | 90.5%

Source: US20260055154A1 (CHENGDU AODA BIOTECHNOLOGY, published 2026)
